This note sets out measurements from IntAct's records for PubMed 31515488.

The chains are these.
B1: Tripartite motif-containing protein 59 (Homo sapiens), Q8IWR1 (parent)
chain: MHNFEEELTCPICYSIFEDPRVLPCSHTFCRNCLENILQASGNFYIWRPLRIPLKCPNCRSITEIAPTGIESLPVNFALRAIIEKYQQEDHPDIVTCPEHYRQPLNVYCLLDKKLVCGHCLTIGQHHGHPIDDLQSAYLKEKDTPQKLLEQLTDTHWTDLTHLIEKLKEQKSHSEKMIQGDKEAVLQYFKELNDTLEQKKKSFLTALCDVGNLINQEYTPQIERMKEIREQQLELMALTISLQEESPLKFLEKVDDVRQHVQILKQRPLPEVQPVEIYPRVSKILKEEWSRTEIGQIKNVLIPKMKISPKRMSCSWPGKDEKEVEFLKILNIVVVTLISVILMSILFFNQHIITFLSEITLIWFSEASLSVYQSLSNSLHKVKNILCHIFYLLKEFVWKIVSH
partner: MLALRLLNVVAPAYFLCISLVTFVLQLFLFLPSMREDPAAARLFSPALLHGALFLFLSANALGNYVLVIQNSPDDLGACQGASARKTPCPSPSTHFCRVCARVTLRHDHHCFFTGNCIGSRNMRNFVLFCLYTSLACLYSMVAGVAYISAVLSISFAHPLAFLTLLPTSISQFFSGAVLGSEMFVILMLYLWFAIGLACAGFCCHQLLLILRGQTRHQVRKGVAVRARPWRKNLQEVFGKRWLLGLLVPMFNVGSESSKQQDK
B2: WD repeat domain-containing protein 83 (Homo sapiens), Q9BRX9 (parent)
chain: MAFPEPKPRPPELPQKRLKTLDCGQGAVRAVRFNVDGNYCLTCGSDKTLKLWNPLRGTLLRTYSGHGYEVLDAAGSFDNSSLCSGGGDKAVVLWDVASGQVVRKFRGHAGKVNTVQFNEEATVILSGSIDSSIRCWDCRSRRPEPVQTLDEARDGVSSVKVSDHEILAGSVDGRVRRYDLRMGQLFSDYVGSPITCTCFSRDGQCTLVSSLDSTLRLLDKDTGELLGEYKGHKNQEYKLDCCLSERDTHVVSCSEDGKVFFWDLVEGALALALPVGSGVVQSLAYHPTEPCLLTAMGGSVQCWREEAYEAEDGAG
B3: KH domain-containing, RNA-binding, signal transduction-associated protein 2 (Homo sapiens), Q5VWX1 (parent)
chain: MEEEKYLPELMAEKDSLDPSFVHASRLLAEEIEKFQGSDGKKEDEEKKYLDVISNKNIKLSERVLIPVKQYPKFNFVGKLLGPRGNSLKRLQEETGAKMSILGKGSMRDKAKEEELRKSGEAKYAHLSDELHVLIEVFAPPGEAYSRMSHALEEIKKFLVPDYNDEIRQEQLRELSYLNGSEDSGRGRGIRGRGIRIAPTAPSRGRGGAIPPPPPPGRGVLTPRGSTVTRGALPVPPVARGVPTPRARGAPTVPGYRAPPPPAHEAYEEYGYDDGYGGEYDDQTYETYDNSYATQTQSVPEYYDYGHGVSEDAYDSYAPEEWATTRSSLKAPPQRSARGGYREHPYGRY
partner: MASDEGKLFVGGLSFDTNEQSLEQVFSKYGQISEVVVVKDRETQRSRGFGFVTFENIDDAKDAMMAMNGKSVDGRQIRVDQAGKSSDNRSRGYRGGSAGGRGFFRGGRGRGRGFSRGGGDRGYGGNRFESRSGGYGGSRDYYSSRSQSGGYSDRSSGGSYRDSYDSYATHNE
B4: Tuftelin-interacting protein 11 (Homo sapiens), Q9UBB9 (parent)
chain: MSLSHLYRDGEGRIDDDDDERENFEITDWDLQNEFNPNRQRHWQTKEEATYGVWAERDSDDERPSFGGKRARDYSAPVNFISAGLKKGAAEEAELEDSDDEEKPVKQDDFPKDFGPRKLKTGGNFKPSQKGFAGGTKSFMDFGSWERHTKGIGQKLLQKMGYVPGRGLGKNAQGIINPIEAKQRKGKGAVGAYGSERTTQSMQDFPVVDSEEEAEEEFQKELSQWRKDPSGSKKKPKYSYKTVEELKAKGRISKKLTAPQKELSQVKVIDMTGREQKVYYSYSQISHKHNVPDDGLPLQSQQLPQSGKEAKAPGFALPELEHNLQLLIDLTEQEIIQNDRQLQYERDMVVNLFHELEKMTEVLDHEERVISNLSKVLEMVEECERRMQPDCSNPLTLDECARIFETLQDKYYEEYRMSDRVDLAVAIVYPLMKEYFKEWDPLKDCTYGTEIISKWKSLLENDQLLSHGGQDLSADAFHRLIWEVWMPFVRNIVTQWQPRNCDPMVDFLDSWVHIIPVWILDNILDQLIFPKLQKEVENWNPLTDTVPIHSWIHPWLPLMQARLEPLYSPIRSKLSSALQKWHPSDSSAKLILQPWKDVFTPGSWEAFMVKNIVPKLGMCLGELVINPHQQHMDAFYWVIDWEGMISVSSLVGLLEKHFFPKWLQVLCSWLSNSPNYEEITKWYLGWKSMFSDQVLAHPSVKDKFNEALDIMNRAVSSNVGAYMQPGARENIAYLTHTERRKDFQYEAMQERREAENMAQRGIGVAASSVPMNFKDLIETKAEEHNIVFMPVIGKRHEGKQLYTFGRIVIYIDRGVVFVQGEKTWVPTSLQSLIDMAK
partner: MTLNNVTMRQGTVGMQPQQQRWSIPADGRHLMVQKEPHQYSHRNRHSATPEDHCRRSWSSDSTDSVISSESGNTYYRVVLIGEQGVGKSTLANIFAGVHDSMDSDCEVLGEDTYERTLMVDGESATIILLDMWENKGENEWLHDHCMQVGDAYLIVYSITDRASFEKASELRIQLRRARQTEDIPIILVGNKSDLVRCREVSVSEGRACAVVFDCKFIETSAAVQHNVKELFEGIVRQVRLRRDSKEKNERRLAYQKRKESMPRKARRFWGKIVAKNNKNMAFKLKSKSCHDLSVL
B5: Protein BANP (Homo sapiens), Q8N9N5 (parent)
chain: MMSEHDLADVVQIAVEDLSPDHPVVLENHVVTDEDEPALKRQRLEINCQDPSIKTICLRLDSIEAKLQALEATCKSLEEKLDLVTNKQHSPIQVPMVAGSPLGATQTCNKVRCVVPQTTVILNNDRQNAIVAKMEDPLSNRAPDSLENVISNAVPGRRQNTIVVKVPGQEDSHHEDGESGSEASDSVSSCGQAGSQSIGSNVTLITLNSEEDYPNGTWLGDENNPEMRVRCAIIPSDMLHISTNCRTAEKMALTLLDYLFHREVQAVSNLSGQGKHGKKQLDPLTIYGIRCHLFYKFGITESDWYRIKQSIDSKCRTAWRRKQRGQSLAVKSFSRRTPNSSSYCPSEPMMSTPPPASELPQPQPQPQALHYALANAQQVQIHQIGEDGQVQVGHLHIAQVPQGEQVQITQDSEGNLQIHHVGQDGQLLEATRIPCLLAPSVFKASSGQVLQGAQLIAVASSDPAAAGVDGSPLQGSDIQVQYVQLAPVSDHTAGAQTAEALQPTLQPEMQLEHGAIQIQ
B6: Centriolar satellite-associated tubulin polyglutamylase complex regulator 1 (Homo sapiens), Q9H6J7 (parent)
chain: MLSPERLALPDYEYLAQRHVLTYMEDAVCQLLENREDISQYGIARFFTEYFNSVCQGTHILFREFSFVQATPHNRVSFLRAFWRCFRTVGKNGDLLTMKEYHCLLQLLCPDFPLELTQKAARIVLMDDAMDCLMSFSDFLFAFQIQFYYSEFLDSVAAIYEDLLSGKNPNTVIVPTSSSGQHRQRPALGGAGTLEGVEASLFYQCLENLCDRHKYSCPPPALVKEALSNVQRLTFYGFLMALSKHRGINQALGALPDKGDLMHDPAMDEELERLLAQVPGLVNSVTASPEASCLPSRTPPRVGSPWRPLHHSRKVDGESDGSTEETDESET
partner: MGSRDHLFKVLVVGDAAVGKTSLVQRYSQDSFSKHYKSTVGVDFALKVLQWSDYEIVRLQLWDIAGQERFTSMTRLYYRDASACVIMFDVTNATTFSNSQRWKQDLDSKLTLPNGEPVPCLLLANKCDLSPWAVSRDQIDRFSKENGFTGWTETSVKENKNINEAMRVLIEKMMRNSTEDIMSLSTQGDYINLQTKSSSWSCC
B7: Keratin-associated protein 12-1 (Homo sapiens), P59990 (parent)
chain: MCHTSCSSGCQPACCAPSPCQASCYIPVGCQSSVCVPVSFKPAVCVPVRCQSSVCVPVSCRPVVYAAPSCQSSGCCQPSCTSVLCRPISCSTPSCC
B8: Methylthioribulose-1-phosphate dehydratase (Homo sapiens), Q96GX9 (parent)
chain: MSGCDAREGDCCSRRCGAQDKEHPRYLIPELCKQFYHLGWVTGTGGGISLKHGDEIYIAPSGVQKERIQPEDMFVCDINEKDISGPSPSKKLKKSQCTPLFMNAYTMRGAGAVIHTHSKAAVMATLLFPGREFKITHQEMIKGIKKCTSGGYYRYDDMLVVPIIENTPEEKDLKDRMAHAMNEYPDSCAVLVRRHGVYVWGETWEKAKTMCECYDYLFDIAVSMKKVGLDPSQLPVGENGIV

The variants in the first assay derive from B1. Particulars: with zdh22_human ZDHHC22, Q8N966.
As to I277V, the “effect of a mutation on the interaction” value was “with no effect”.

The next assay covers variants of B2. Particulars: with keap1_human KEAP1, Q14145.
Sequence of keap1_human KEAP1, Q14145 (Q14145 whole entry): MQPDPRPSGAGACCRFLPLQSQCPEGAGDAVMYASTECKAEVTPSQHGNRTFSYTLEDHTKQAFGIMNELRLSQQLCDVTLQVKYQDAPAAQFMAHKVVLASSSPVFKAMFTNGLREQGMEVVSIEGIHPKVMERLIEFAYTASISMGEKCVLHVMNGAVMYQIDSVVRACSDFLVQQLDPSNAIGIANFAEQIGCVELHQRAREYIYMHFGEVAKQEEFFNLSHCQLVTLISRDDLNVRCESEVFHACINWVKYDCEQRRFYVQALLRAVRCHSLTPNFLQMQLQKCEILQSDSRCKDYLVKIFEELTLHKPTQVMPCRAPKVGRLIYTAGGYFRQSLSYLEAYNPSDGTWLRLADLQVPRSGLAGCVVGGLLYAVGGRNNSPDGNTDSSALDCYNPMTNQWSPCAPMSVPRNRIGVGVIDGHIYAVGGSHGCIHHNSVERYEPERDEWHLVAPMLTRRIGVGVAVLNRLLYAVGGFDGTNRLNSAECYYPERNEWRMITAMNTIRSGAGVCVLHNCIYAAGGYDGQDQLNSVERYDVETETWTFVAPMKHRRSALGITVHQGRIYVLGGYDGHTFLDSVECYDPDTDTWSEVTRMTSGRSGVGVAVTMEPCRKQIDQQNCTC
With G278S, the “effect of a mutation on the interaction” value was “with no effect”.

For E144Q, the “effect of a mutation on the interaction” value is recorded as “with no effect”.

Variants of B3 are the subject of a further assay. Particulars: with cirbp_human CIRBP.
Consider P333L, for which the “effect of a mutation on the interaction” value is given as “with no effect”.

The next assay covers variants of B4. Particulars: with gem_human GEM.
In the case of R8Q, the “effect of a mutation on the interaction” value is on record as “with no effect”.

Regarding S688L, the “effect of a mutation on the interaction” value was “with no effect”.

In a further assay the parent is B5. As to conditions: with zn471_human ZNF471, Q9BX82.
Sequence of zn471_human ZNF471, Q9BX82 (Q9BX82 whole entry): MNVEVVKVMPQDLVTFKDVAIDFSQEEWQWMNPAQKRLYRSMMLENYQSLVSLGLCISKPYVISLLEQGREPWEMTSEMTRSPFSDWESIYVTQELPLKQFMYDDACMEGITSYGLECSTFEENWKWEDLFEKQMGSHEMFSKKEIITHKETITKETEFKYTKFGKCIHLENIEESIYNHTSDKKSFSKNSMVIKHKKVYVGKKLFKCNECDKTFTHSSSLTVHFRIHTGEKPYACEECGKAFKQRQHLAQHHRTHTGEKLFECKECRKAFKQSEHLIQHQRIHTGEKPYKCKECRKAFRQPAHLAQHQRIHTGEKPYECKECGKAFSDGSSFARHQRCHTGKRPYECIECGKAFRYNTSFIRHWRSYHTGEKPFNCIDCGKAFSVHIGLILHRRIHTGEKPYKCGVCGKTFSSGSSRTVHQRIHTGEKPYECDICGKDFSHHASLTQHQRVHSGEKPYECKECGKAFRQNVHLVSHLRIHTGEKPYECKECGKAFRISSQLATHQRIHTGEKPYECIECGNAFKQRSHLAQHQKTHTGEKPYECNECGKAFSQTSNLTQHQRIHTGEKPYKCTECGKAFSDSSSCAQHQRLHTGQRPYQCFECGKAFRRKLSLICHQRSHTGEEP
Turning to P348S, the “effect of a mutation on the interaction” value is “with no effect”.

A further assay covers variants of B6. Particulars: with rab7l_human RAB29, O14966.
Regarding S177L, the “effect of a mutation on the interaction” value was “with no effect”.

The variants in another assay derive from B7. Particulars: with meox2_human MEOX2, P50222.
Sequence of meox2_human MEOX2, P50222 (P50222 whole entry): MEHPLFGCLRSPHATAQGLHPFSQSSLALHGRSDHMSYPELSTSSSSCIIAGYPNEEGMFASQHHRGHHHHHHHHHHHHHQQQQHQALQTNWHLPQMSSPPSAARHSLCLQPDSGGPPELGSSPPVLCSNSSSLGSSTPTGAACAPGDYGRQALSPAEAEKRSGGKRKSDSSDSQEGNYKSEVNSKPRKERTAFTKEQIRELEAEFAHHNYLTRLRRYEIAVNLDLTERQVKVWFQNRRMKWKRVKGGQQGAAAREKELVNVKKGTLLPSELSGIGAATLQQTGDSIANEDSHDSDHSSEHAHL
In the case of A16T, the “effect of a mutation on the interaction” value is on record as “with no effect”.

Variants of B8 are the subject of the next assay. Particulars: with ntaq1_human NTAQ1, Q96HA8.
For the variant G111A, the “effect of a mutation on the interaction” value is given as “with no effect”.

For the variant M181V, the “effect of a mutation on the interaction” value is given as “with no effect”.
